Measurements taken from patent publication US20040259770A1, “Method for determining leukocyte activation” (Rush University Medical Center, priority 2003, published 2004).
Like-named read-outs stand apart in the source and are kept apart here.

B1: immobilized lactoferrin: human milk lactoferrin (Sigma) coated on tissue culture wells overnight at 4° C (protein, UniProt P02788 20-710, looked up)
Lactotransferrin: GRRRSVQWCAVSQPEATKCFQWQRNMRKVRGPPVSCIKRDSPIQCIQAIAENRADAVTLDGGFIYEAGLAPYKLRPVAAEVYGTERQPRTHYYAVAVVKKGGSFQLNELQGLKSCHTGLRRTAGWNVPIGTLRPFLNWTGPPEPIEAAVARFFSASCVPGADKGQFPNLCRLCAGTGENKCAFSSQEPYFSYSGAFKCLRDGAGDVAFIRESTVFEDLSDEAERDEYELLCPDNTRKPVDKFKDCHLARVPSHAVVARSVNGKEDAIWNLLRQAQEKFGKDKSPKFQLFGSPSGQKDLLFKDSAIGFSRVPPRIDSGLYLGSGYFTAIQNLRKSEEEVAARRARVVWCAVGEQELRKCNQWSGLSEGSVTCSSASTTEDCIALVLKGEADAMSLDGGYVYTAGKCGLVPVLAENYKSQQSSDPDPNCVDRPVEGYLAVAVVRRSDTSLTWNSVKGKKSCHTAVDRTAGWNIPMGLLFNQTGSCKFDEYFSQSCAPGSDPRSNLCALCIGDEQGENKCVPNSNERYYGYTGAFRCLAENAGDVAFVKDVTVLQNTDGNNNEAWAKDLKLADFALLCLDGKRKPVTEARSCHLAMAPNHAVVSRMDKVERLKQVLLHQQAKFGRNGSDCPDKFCLFQSETKNLLFNDNTECLARLHGKTTYEKYLGPQYVAGITNLKKCSTSPLLEACEFLRK
modifications: immobilized
notes: human milk lactoferrin (Sigma) coated on tissue culture wells overnight at 4° C
B2: lactoferrin: 78-80 kilodalton multifunctional glycoprotein of external secretions and neutrophil secondary granules (protein, UniProt P02788 20-710, looked up)
Lactotransferrin: B1 Lactotransferrin

Key:
eosinophils [1] = assay: Eosinophil superoxide production (cytochrome c reduction) in protein-coated tissue culture wells; format: cell-based, human
Procedure: Neutrophils were isolated from venous blood of healthy adult volunteers by density gradient centrifugation through lymphocyte separation medium (BioWhittaker; Walkersville, Md.) as described previously (Haskell M. D., et al., Blood 86:4627-4637 (1995)) with one modification. Isotonicity was restored following the brief hypotonic lysis steps by the addition of 2× concentrated Hank's Balanced Salt Solution (HBSS) (Gibco; Grand Island, N.Y.) (without Ca^2+ and Mg^2+) containing 5 mM HEPES, pH 7.4. The cells were suspended in HEPES (10 mM)-buffered HBSS (with Ca^2+ and Mg^2+), pH 7.4, containing 1 milligram per milliliter of human serum albumin (HSA) (Sigma Chemical Co.) (HEPES-HBSS-HSA buffer). Neutrophil purity was routinely greater than 95 percent, with eosinophils representing the remainder of the cells. Eosinophils were isolated from the neutrophil preparations by negative selection (Hansel T. T., et al., J. Immunol. Meth. 145:105-10 (1991)) using anti-CD16 immunomagnetic beads as described by the manufacturer (Miltenyi Biotec, Inc., Auburn, Calif.). The eosinophils were suspended in HEPES-HBSS-HSA buffer. Eosinophil purity was routinely greater than 95 percent as determined by counting Wright-stained cytospin preparations. In some assays, an aliquot of the neutrophil preparation was held on ice for later use.
Superoxide production was measured essentially as described elsewhere (Motegi, Y., and H. Kita, J. Immunol. 161:4340 (1998)). Briefly, wells in a 96-well (flat bottom) tissue culture plate (Corning, Inc.; Corning, N.Y.) were coated with human milk lactoferrin (Sigma Chemical Co.) or human secretory IgA (ICN Biomedical; Aurora, Ohio) by incubation with 50 microliters of the indicated concentrations of the proteins in phosphate buffered saline (PBS) overnight at 4° C. Non-specific protein binding sites were blocked by subsequent incubation with 100 microliters of 25 milligrams per milliliter of HSA in PBS for 2 hours at 37° C., and the tissue culture wells were washed twice with PBS before use. Aliquots (5×10^4 cells) of eosinophils or neutrophils were added to the wells and were incubated in HEPES-HBSS—HSA buffer containing 50 micromolar cytochrome c (Sigma Chemical Co.) for 120 minutes at 37° C. in a Ceres UV900HDi microplate reader (Bio-Tek Instruments, Inc., Winooski, Vt.). Total incubation volume was 0.2 milliliters. Absorbance at 550 nanometers was recorded at 15-minute intervals, and superoxide production was calculated as described previously (Motegi, Y., and H. Kita, J. Immunol. 161:4340 (1998)). Results are expressed as nanomoles superoxide per 10^5 cells after subtraction of spontaneous production, which was measured in tissue culture wells coated only with HSA. GM-CSF (R & D Systems; Minneapolis, Minn.), porcine heparin (Sigma Chemical Co.), or chondroitin sulfate C (Sigma Chemical Co.) was added to the incubation mixtures in some assays as indicated.

neutrophils = assay: Neutrophil superoxide production (cytochrome c reduction) in protein-coated tissue culture wells; format: cell-based, human
Procedure: Neutrophils were isolated from venous blood of healthy adult volunteers by density gradient centrifugation through lymphocyte separation medium (BioWhittaker; Walkersville, Md.) as described previously (Haskell M. D., et al., Blood 86:4627-4637 (1995)) with one modification. Isotonicity was restored following the brief hypotonic lysis steps by the addition of 2× concentrated Hank's Balanced Salt Solution (HBSS) (Gibco; Grand Island, N.Y.) (without Ca^2+ and Mg^2+) containing 5 mM HEPES, pH 7.4. The cells were suspended in HEPES (10 mM)-buffered HBSS (with Ca^2+ and Mg^2+), pH 7.4, containing 1 milligram per milliliter of human serum albumin (HSA) (Sigma Chemical Co.) (HEPES-HBSS-HSA buffer). […] Eosinophil purity was routinely greater than 95 percent as determined by counting Wright-stained cytospin preparations. […]
Superoxide production was measured essentially as described elsewhere (Motegi, Y., and H. Kita, J. Immunol. 161:4340 (1998)). […] Aliquots (5×10^4 cells) of eosinophils or neutrophils were added to the wells and were incubated in HEPES-HBSS—HSA buffer containing 50 micromolar cytochrome c (Sigma Chemical Co.) for 120 minutes at 37° C. in a Ceres UV900HDi microplate reader (Bio-Tek Instruments, Inc., Winooski, Vt.). […] Results are expressed as nanomoles superoxide per 10^5 cells after subtraction of spontaneous production, which was measured in tissue culture wells coated only with HSA. […]

eosinophils [2] = assay: Eosinophil degranulation: EDN release by ELISA; format: cell-based, human; settings: 3 to 100 micrograms per milliliter immobilized, 4 hours at 37° C, maximum at 100 micrograms per milliliter
Procedure: Eosinophils (2×10^5) were incubated in the presence and absence of 100 picograms per milliliter of GM-CSF in RPMI 1640 containing 1 milligram per milliliter of HSA for 4 hours at 37° C. in 5 percent CO2 in tissue culture wells precoated with lactoferrin or secretory IgA as above. Total incubation volume was 0.2 milliliters. Reactions were stopped by centrifugation at 300 g for 5 minutes at 4° C., and supernatants were stored at −20° C. until measurement of eosinophil-derived neurotoxin (EDN) content by specific ELISA (MBL International, Watertown, Mass.). Spontaneous release of EDN was determined with cells incubated in HSA-coated wells.

eosinophils [3] = assay: Eosinophil leukotriene C4 production by ELISA; format: cell-based, human; settings: 1 hour
Procedure: Eosinophils (2×10^5) were incubated in the presence and absence of 100 pg/ml GM-CSF in RPMI 1640 containing 10 mM HEPES for 1 hr at 37° C. in tissue culture wells precoated with lactoferrin or secretory IgA as above with one modification. The tissue culture wells were not treated with HSA and HSA was not added to the incubation buffer to minimize loss of leukotriene C4. Total incubation volume was 0.2 ml. Reactions were stopped by centrifugation at 300 g for 5 min at 4° C., and supernatants were stored at −20° C. until measurement of leukotriene C4 content by a leukotriene C4/D4/E4 ELISA (Amersham Pharmacia Biotech; Piscataway, N.J.). Spontaneous leukotriene C4 production was determined with eosinophils incubated in untreated tissue culture wells.

eosinophils [4] = assay: Flow cytometric analysis of binding of lactoferrin by eosinophils; parameters: species or system human
Procedure: Eosinophils (10^6 cells) were incubated with or without the indicated concentrations of lactoferrin in 100 microliters of HEPES-HBSS-HSA buffer for 90 minutes at 4° C. The cells were collected by centrifugation at 300 g for 5 minutes at 4° C., and then incubated with 1.5 micrograms FITC-conjugated polyclonal anti-lactoferrin (Sigma Chemical Co.) or FITC-conjugated rabbit IgG (Sigma Chemical Co.) in 25 microliters PBS (pH 7.2) containing 0.1 percent gelatin and 0.1 percent azide (PBS-gel-azide) for 30 minutes on ice. The cells were washed twice in ice-cold PBS-gel-azide and were suspended in PBS-gel-azide buffer containing 1 percent formaldehyde for analysis by flow cytometry. Fluorescence intensity of 10,000 cells in each sample was measured using a FACScan flow cytometer (Becton-Dickinson; San Jose, Calif.).

[5] = test system: lactoferrin receptor on neutrophils; settings: Boxer et al. 1982, cited from earlier work

Molecule	stimulation of eosinophil superoxide production (in words) (eosinophils [1]; 1 to 100 micrograms per milliliter of the protein, 2 hours at 37° C)	concentration giving maximum (peak) superoxide production (eosinophils [1]; 2-hour time point, absence of GM-CSF) [micrograms per milliliter]	superoxide production with immobilized lactoferrin and immobilized secretory IgA in combination (eosinophils [1]; 3 or 10 micrograms per milliliter lactoferrin plus 1 or 3 micrograms per milliliter secretory IgA, n=4)	maximum response of superoxide production (eosinophils [1]; 30 micrograms per milliliter immobilized, 2-hour time point, five assays, corrected for spontaneous production)	eosinophil superoxide production (eosinophils [1]; 30 micrograms per milliliter immobilized, Example 3 assays (same donors as neutrophils), spontaneous value subtracted)	stimulation of eosinophil superoxide production (in words) (eosinophils [1]; immobilized at concentrations less than 3 micrograms per milliliter)	potency relative to immobilized secretory IgA (eosinophils [1]; superoxide production, same assays)	stimulation of neutrophil superoxide production (in words) (neutrophils; 1 to 100 micrograms per milliliter immobilized, up to 2 hours)	neutrophil superoxide production as percent of eosinophil superoxide production stimulated by 30 micrograms per milliliter immobilized lactoferrin (neutrophils; 100 microgram per milliliter immobilized lactoferrin) [%]	net release of EDN (eosinophils [2])	leukotriene C4 production (in words) (eosinophils [3]; 3 to 100 micrograms per milliliter immobilized, no GM-CSF)	leukotriene C4 production (eosinophils [3]; 10 micrograms per milliliter immobilized lactoferrin alone)	leukotriene C4 production (eosinophils [3]; 10 micrograms per milliliter immobilized lactoferrin together with 100 picograms per milliliter GM-CSF)	fluorescence intensity with FITC-conjugated anti-lactoferrin antibody (eosinophils [4]; 30 micrograms per milliliter soluble lactoferrin, 90 minutes at 4° C)	fluorescence intensity with FITC-conjugated anti-lactoferrin antibody (eosinophils [4]; 100 micrograms per milliliter lactoferrin)	lactoferrin concentration at which binding by eosinophils is saturated (eosinophils [4]; flow cytometry analysis, approximately 0.4 micromolar) [micrograms per milliliter]	Kd ([5]; read-out: dissociation constant of lactoferrin receptor described for neutrophils) [nM]	Kd ([5]; read-out: dissociation constant of lactoferrin receptor described on neutrophils) [nM]
B1	stimulated marked superoxide production	30	additive levels of superoxide production	approximately 5 nanomoles superoxide per 10^5 eosinophils	5.5±1.4 nanomoles per 10^5 eosinophils	did not appear to stimulate superoxide production	approximately one-third	did not produce significant superoxide production	25	≤ 1000 nanograms of EDN per 10^6 eosinophils	stimulated only low levels of leukotriene C4	115 picograms leukotriene C4 per 10^6 eosinophils	955 picograms leukotriene C4 per 10^6 eosinophils					
B2														marked increase in the fluorescence intensity	did not produce any further increase in the level of fluorescence intensity	30	~200	~200
